Experiment [1] has as its target T1, FcγRIIa H (FcγRIIa, allotype with His at position 131), extracellular domain with C-terminal His tag (human, UniProt P12318 34-217).
T1 construct: extracellular domain; also called FcgRIIa H; 2aH; not shown: His tag at the C terminus
T1 sequence (looked up): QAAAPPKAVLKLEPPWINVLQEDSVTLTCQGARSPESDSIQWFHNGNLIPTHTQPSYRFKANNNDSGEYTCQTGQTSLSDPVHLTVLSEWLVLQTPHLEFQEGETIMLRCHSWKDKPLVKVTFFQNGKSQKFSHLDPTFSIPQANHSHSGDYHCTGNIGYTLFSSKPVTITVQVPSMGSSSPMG
The experiment in a line: SPR (Biacore); He/Con_2aH divided by He/Con_2b (FcγRIIb). A general note: SPR reads the build-up and loss of mass on a sensor chip optically.

Experiment [2] deals with T2, FcγRIIb, extracellular domain with C-terminal His tag (human, UniProt P31994 43-217).
T2 construct: extracellular domain; also called FcgRIIb; 2b; not shown: His tag at the C terminus
T2 sequence (looked up): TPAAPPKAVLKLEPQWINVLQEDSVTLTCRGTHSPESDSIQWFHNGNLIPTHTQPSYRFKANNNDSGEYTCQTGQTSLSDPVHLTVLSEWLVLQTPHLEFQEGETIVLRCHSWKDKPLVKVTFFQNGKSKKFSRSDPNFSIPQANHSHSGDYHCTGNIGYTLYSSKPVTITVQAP
The experiment can be described thus: SPR (Biacore), relative binding vs GpH7-A5/GpH7-B3/GpL16-k0.

The target of experiment [3] is T1, FcγRIIa H (FcγRIIa, allotype with His …). The experiment is described as above.

B1: GpH7-A5/GpH7-B3 variant N325_14T/GpL16-k0 (antibody, human IgG1, kappa)
heavy 1: not shown
heavy 2: not shown
light: DIVMTQSPLSLPVTPGEPASISCQASESLVHSNRNTYLHWYLQKPGQSPQLLIYKVSNRFSGVPDRFSGSGSGTDFTLKISRVEAEDVGVYYCSQNTHVPPTFGQGTKVEIERTVAAPSVFIFPPSDEQLKSGTASVVCLLNNFYPREAKVQWKVDNALQSGNSQESVTEQDSKDSTYSLSSTLTLSKADYEKHKVYACEVTHQGLSSPVTKSFNRGEC
notes: Heterodimerized anti-glypican-3 IgG1; mutation in one H chain only; also called He Ab
As to B1, the “He_2aH/2b (IIaH/IIb)” value in experiment [1] was determined as 0.68 ratio. Also, the He/Con_2b in experiment [2] was 91.6 % of HeCon Ab (=100). The He/Con_2aH in experiment [3] was 62.7 % of HeCon Ab (=100).

B2: GpH7-A5/GpH7-B3 variant P331_20W/GpL16-k0 (antibody, human IgG1, kappa)
heavy 1: not shown
heavy 2: not shown
light: DIVMTQSPLSLPVTPGEPASISCQASESLVHSNRNTYLHWYLQKPGQSPQLLIYKVSNRFSGVPDRFSGSGSGTDFTLKISRVEAEDVGVYYCSQNTHVPPTFGQGTKVEIERTVAAPSVFIFPPSDEQLKSGTASVVCLLNNFYPREAKVQWKVDNALQSGNSQESVTEQDSKDSTYSLSSTLTLSKADYEKHKVYACEVTHQGLSSPVTKSFNRGEC
notes: as for B1
B2: in experiment [1], the “He_2aH/2b (IIaH/IIb)” value is 0.75 ratio. Besides, the He/Con_2b in experiment [2] is 111 % of HeCon Ab (=100). The He/Con_2aH in experiment [3] is 82.8 % of HeCon Ab (=100).

B3: GpH7-A5/GpH7-B3 variant P331_16H/GpL16-k0 (antibody, human IgG1, kappa)
heavy 1: not shown
heavy 2: not shown
light: DIVMTQSPLSLPVTPGEPASISCQASESLVHSNRNTYLHWYLQKPGQSPQLLIYKVSNRFSGVPDRFSGSGSGTDFTLKISRVEAEDVGVYYCSQNTHVPPTFGQGTKVEIERTVAAPSVFIFPPSDEQLKSGTASVVCLLNNFYPREAKVQWKVDNALQSGNSQESVTEQDSKDSTYSLSSTLTLSKADYEKHKVYACEVTHQGLSSPVTKSFNRGEC
notes: as for B1
As for B3, the “He_2aH/2b (IIaH/IIb)” value in experiment [1] turned out to be 0.73 ratio. Further, in experiment [2], the He/Con_2b is 116 % of HeCon Ab (=100). Also, the He/Con_2aH in experiment [3] is 84.5 % of HeCon Ab (=100).

B4: GpH7-A5/GpH7-B3 variant P331_07I/GpL16-k0 (antibody, human IgG1, kappa)
heavy 1: not shown
heavy 2: not shown
light: DIVMTQSPLSLPVTPGEPASISCQASESLVHSNRNTYLHWYLQKPGQSPQLLIYKVSNRFSGVPDRFSGSGSGTDFTLKISRVEAEDVGVYYCSQNTHVPPTFGQGTKVEIERTVAAPSVFIFPPSDEQLKSGTASVVCLLNNFYPREAKVQWKVDNALQSGNSQESVTEQDSKDSTYSLSSTLTLSKADYEKHKVYACEVTHQGLSSPVTKSFNRGEC
notes: as for B1
As for B4, the “He_2aH/2b (IIaH/IIb)” value in experiment [1] amounted to 0.68 ratio. For the same molecule, the He/Con_2b in experiment [2] was 114 % of HeCon Ab (=100). In addition, the He/Con_2aH in experiment [3] is 77.4 % of HeCon Ab (=100).

B5: GpH7-A5/GpH7-B3 variant P331_04F/GpL16-k0 (antibody, human IgG1, kappa)
heavy 1: not shown
heavy 2: not shown
light: DIVMTQSPLSLPVTPGEPASISCQASESLVHSNRNTYLHWYLQKPGQSPQLLIYKVSNRFSGVPDRFSGSGSGTDFTLKISRVEAEDVGVYYCSQNTHVPPTFGQGTKVEIERTVAAPSVFIFPPSDEQLKSGTASVVCLLNNFYPREAKVQWKVDNALQSGNSQESVTEQDSKDSTYSLSSTLTLSKADYEKHKVYACEVTHQGLSSPVTKSFNRGEC
notes: as for B1
As to B5, in experiment [1], the “He_2aH/2b (IIaH/IIb)” value worked out at 0.77 ratio. Besides, the He/Con_2b in experiment [2] was 110 % of HeCon Ab (=100). Also, in experiment [3], the He/Con_2aH is 84.7 % of HeCon Ab (=100).

B6: GpH7-A5/GpH7-B3 variant P331_03V/GpL16-k0 (antibody, human IgG1, kappa)
heavy 1: not shown
heavy 2: not shown
light: DIVMTQSPLSLPVTPGEPASISCQASESLVHSNRNTYLHWYLQKPGQSPQLLIYKVSNRFSGVPDRFSGSGSGTDFTLKISRVEAEDVGVYYCSQNTHVPPTFGQGTKVEIERTVAAPSVFIFPPSDEQLKSGTASVVCLLNNFYPREAKVQWKVDNALQSGNSQESVTEQDSKDSTYSLSSTLTLSKADYEKHKVYACEVTHQGLSSPVTKSFNRGEC
notes: as for B1
For B6, in experiment [1], the “He_2aH/2b (IIaH/IIb)” value amounted to 0.7 ratio. Besides, the He/Con_2b in experiment [2] was 119 % of HeCon Ab (=100). Further, the He/Con_2aH in experiment [3] was 82.5 % of HeCon Ab (=100).

B7: GpH7-A5/GpH7-B3 variant P331_15Y/GpL16-k0 (antibody, human IgG1, kappa)
heavy 1: not shown
heavy 2: not shown
light: DIVMTQSPLSLPVTPGEPASISCQASESLVHSNRNTYLHWYLQKPGQSPQLLIYKVSNRFSGVPDRFSGSGSGTDFTLKISRVEAEDVGVYYCSQNTHVPPTFGQGTKVEIERTVAAPSVFIFPPSDEQLKSGTASVVCLLNNFYPREAKVQWKVDNALQSGNSQESVTEQDSKDSTYSLSSTLTLSKADYEKHKVYACEVTHQGLSSPVTKSFNRGEC
notes: as for B1
As to B7, the “He_2aH/2b (IIaH/IIb)” value in experiment [1] was 0.75 ratio. Moreover, the He/Con_2b in experiment [2] is 114 % of HeCon Ab (=100). Also, the He/Con_2aH in experiment [3] is 86 % of HeCon Ab (=100).

B8: GpH7-A5/GpH7-B3 variant S324_05P/GpL16-k0 (antibody, human IgG1, kappa)
heavy 1: not shown
heavy 2: not shown
light: DIVMTQSPLSLPVTPGEPASISCQASESLVHSNRNTYLHWYLQKPGQSPQLLIYKVSNRFSGVPDRFSGSGSGTDFTLKISRVEAEDVGVYYCSQNTHVPPTFGQGTKVEIERTVAAPSVFIFPPSDEQLKSGTASVVCLLNNFYPREAKVQWKVDNALQSGNSQESVTEQDSKDSTYSLSSTLTLSKADYEKHKVYACEVTHQGLSSPVTKSFNRGEC
notes: as for B1
In the case of B8, the “He_2aH/2b (IIaH/IIb)” value in experiment [1] was found to be 0.59 ratio. Besides, the He/Con_2b in experiment [2] was 94.7 % of HeCon Ab (=100). Besides, the He/Con_2aH in experiment [3] was 55.5 % of HeCon Ab (=100).

B9: GpH7-A5/GpH7-B3 variant N325_20W/GpL16-k0 (antibody, human IgG1, kappa)
heavy 1: not shown
heavy 2: not shown
light: DIVMTQSPLSLPVTPGEPASISCQASESLVHSNRNTYLHWYLQKPGQSPQLLIYKVSNRFSGVPDRFSGSGSGTDFTLKISRVEAEDVGVYYCSQNTHVPPTFGQGTKVEIERTVAAPSVFIFPPSDEQLKSGTASVVCLLNNFYPREAKVQWKVDNALQSGNSQESVTEQDSKDSTYSLSSTLTLSKADYEKHKVYACEVTHQGLSSPVTKSFNRGEC
notes: as for B1
As for B9, the “He_2aH/2b (IIaH/IIb)” value in experiment [1] came to 0.28 ratio. In addition, in experiment [2], the He/Con_2b is 169 % of HeCon Ab (=100). Besides, the He/Con_2aH in experiment [3] is 47.2 % of HeCon Ab (=100).

B10: GpH7-A5/GpH7-B3 variant N325_16H/GpL16-k0 (antibody, human IgG1, kappa)
heavy 1: not shown
heavy 2: not shown
light: DIVMTQSPLSLPVTPGEPASISCQASESLVHSNRNTYLHWYLQKPGQSPQLLIYKVSNRFSGVPDRFSGSGSGTDFTLKISRVEAEDVGVYYCSQNTHVPPTFGQGTKVEIERTVAAPSVFIFPPSDEQLKSGTASVVCLLNNFYPREAKVQWKVDNALQSGNSQESVTEQDSKDSTYSLSSTLTLSKADYEKHKVYACEVTHQGLSSPVTKSFNRGEC
notes: as for B1
Regarding B10, the “He_2aH/2b (IIaH/IIb)” value in experiment [1] is 0.68 ratio. For the same molecule, in experiment [2], the He/Con_2b was 70.1 % of HeCon Ab (=100). Besides, the He/Con_2aH in experiment [3] is 48 % of HeCon Ab (=100).

B11: GpH7-A5/GpH7-B3 variant P331_10E/GpL16-k0 (antibody, human IgG1, kappa)
heavy 1: not shown
heavy 2: not shown
light: DIVMTQSPLSLPVTPGEPASISCQASESLVHSNRNTYLHWYLQKPGQSPQLLIYKVSNRFSGVPDRFSGSGSGTDFTLKISRVEAEDVGVYYCSQNTHVPPTFGQGTKVEIERTVAAPSVFIFPPSDEQLKSGTASVVCLLNNFYPREAKVQWKVDNALQSGNSQESVTEQDSKDSTYSLSSTLTLSKADYEKHKVYACEVTHQGLSSPVTKSFNRGEC
notes: as for B1
Regarding B11, in experiment [1], the “He_2aH/2b (IIaH/IIb)” value was determined as 0.75 ratio. The He/Con_2b in experiment [2] was 116 % of HeCon Ab (=100). Also, the He/Con_2aH in experiment [3] was 87.1 % of HeCon Ab (=100).

B12: GpH7-A5/GpH7-B3 variant N325_15Y/GpL16-k0 (antibody, human IgG1, kappa)
heavy 1: not shown
heavy 2: not shown
light: DIVMTQSPLSLPVTPGEPASISCQASESLVHSNRNTYLHWYLQKPGQSPQLLIYKVSNRFSGVPDRFSGSGSGTDFTLKISRVEAEDVGVYYCSQNTHVPPTFGQGTKVEIERTVAAPSVFIFPPSDEQLKSGTASVVCLLNNFYPREAKVQWKVDNALQSGNSQESVTEQDSKDSTYSLSSTLTLSKADYEKHKVYACEVTHQGLSSPVTKSFNRGEC
notes: as for B1
As for B12, the “He_2aH/2b (IIaH/IIb)” value in experiment [1] amounted to 0.41 ratio. Further, the He/Con_2b in experiment [2] is 99.5 % of HeCon Ab (=100). Also, in experiment [3], the He/Con_2aH was 41.2 % of HeCon Ab (=100).

The values are drawn from US20150344570A1 (published 2015).
